According to PMC4252516:

Biological target: AbrBC, C-terminal multimerization domain of AbrB from Bacillus subtilis (residues 52-94) (Bacillus subtilis)
Assay: SEC

“AbrBC, C-terminal multimerization domain of AbrB from Bacillus subtilis (residues 52-94) (domain or fragment)” was tested, and the stoichiometry N was 2.
